The text below walks through data of patent publication US20120121633A1 (published 2012).

This assay addresses T1, ovalbumin (UniProt P01012 2-386).
T1 construct: also called control ovalbumin
T1 sequence: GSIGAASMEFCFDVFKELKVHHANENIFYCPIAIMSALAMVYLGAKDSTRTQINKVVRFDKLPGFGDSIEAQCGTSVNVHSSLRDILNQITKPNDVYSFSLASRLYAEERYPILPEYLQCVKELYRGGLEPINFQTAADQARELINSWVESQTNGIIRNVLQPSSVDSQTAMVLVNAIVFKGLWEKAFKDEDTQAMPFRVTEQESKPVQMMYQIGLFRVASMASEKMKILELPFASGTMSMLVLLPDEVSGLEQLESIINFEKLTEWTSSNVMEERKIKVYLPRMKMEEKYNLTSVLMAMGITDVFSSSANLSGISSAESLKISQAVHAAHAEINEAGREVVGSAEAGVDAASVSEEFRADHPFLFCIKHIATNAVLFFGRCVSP
As to the kind of experiment: competition ELISA: no inhibition of MAb 2G9 binding to immobilized BSA-E-416-433.

B1: IgM clone 2G9 (antibody, V domains shown)
VH: QVQLKQSGPGLVQPSQSLSITCTVSGFSLTSYGVHWVRQSPGKGLEWLGVIWSGGSTDYNAAFISRLSISKDNSKSQVFFKMNSLQANDTAIYYCARNKDYGSSYDYYAMDYWGQGTSVTVSS
VL: DIQMTQTTSSLSASLGDRVTISCRASQDISNYLNWYQQKPDGTVKLLIYYTSRLHSGVPSRFSGSGSGTDYSLTISNLEQEDIATYFCQQGNTLPTFGGGTKLEIKR
notes: also called MAb 2G9; MAb IgM 2G9
On to B1, for which the binding result is “no binding”.
